Laboratory results taken from patent US20110301073.

Columns and labels:
[1] = test system: R0-VP16 (no tandem repeats) (Xanthomonas sp. (engineered)); experiment: cell_activity; settings: no tandem repeats
[2] = test system: nR23570S-dNC (17.5 repeats without N- and C-caps) (Xanthomonas sp. (engineered)); experiment: cell_activity; settings: mock 1.48; caps deleted
[3] = test system: TALEN 101139 (synthetic (Xanthomonas TALE)); experiment: cell_activity; settings: paired with 101141
[4] = test system: TALE13 C+11 FokI (Xanthomonas axonopodis); experiment: cleavage_in_vitro; settings: two sites, 12 bp spacer
[5] = test system: TALE13 C+5 FokI (Xanthomonas axonopodis); experiment: cleavage_in_vitro; settings: two sites, 12 bp spacer
[6] = test system: TALE13 C-2 FokI (Xanthomonas axonopodis); experiment: cleavage_in_vitro; settings: two sites, 12 bp spacer
[7] = test system: TALE13 C+17 FokI (Xanthomonas axonopodis); experiment: cleavage_in_vitro; settings: two sites, 12 bp spacer
[8] = test system: TALEN 101141 (HD half repeat) (synthetic (Xanthomonas TALE)); experiment: cell_activity; settings: paired with 101139
[9] = test system: TALE test backbone, repeat 5 RVD KD (synthetic (Xanthomonas TALE)); settings: ELISA
[10] = test system: TALE test backbone, repeat 5 RVD HN (synthetic (Xanthomonas TALE)); settings: ELISA
[11] = test system: TALE test backbone, repeat 5 RVD DH (synthetic (Xanthomonas TALE)); settings: ELISA
[12] = test system: TALE test backbone, repeat 5 RVD KT (synthetic (Xanthomonas TALE)); settings: ELISA
[13] = test system: TALE test backbone, repeat 5 RVD AD (synthetic (Xanthomonas TALE)); settings: ELISA
[14] = test system: TALE test backbone, repeat 5 RVD PW (Xanthomonas sp. (engineered)); settings: RVD PW; 0.00 on all four bases
[15] = test system: TALE test backbone, repeat 5 RVD GG (synthetic (Xanthomonas TALE)); settings: ELISA
[16] = test system: TALE test backbone, repeat 5 RVD RG (synthetic (Xanthomonas TALE)); settings: ELISA
[17] = test system: TALE test backbone, repeat 5 RVD KS (synthetic (Xanthomonas TALE)); settings: ELISA
[18] = test system: TALE test backbone, repeat 5 RVD VG (synthetic (Xanthomonas TALE)); settings: ELISA
[19] = test system: TALE test backbone, repeat 5 RVD IA (synthetic (Xanthomonas TALE)); settings: ELISA
[20] = test system: TALE test backbone, repeat 5 RVD HG (synthetic (Xanthomonas TALE)); settings: ELISA
[21] = test system: TALE test backbone, repeat 5 RVD NN (Xanthomonas sp. (engineered)); settings: RVD NN
[22] = test system: TALE test backbone, repeat 5 RVD SN (synthetic (Xanthomonas TALE)); settings: ELISA
[23] = test system: TALE test backbone, repeat 5 RVD AN (synthetic (Xanthomonas TALE)); settings: ELISA
[24] = test system: TALE test backbone, repeat 5 RVD IP (synthetic (Xanthomonas TALE)); settings: ELISA
[25] = test system: TALE test backbone, repeat 5 RVD QA (synthetic (Xanthomonas TALE)); settings: ELISA
[26] = test system: TALE test backbone, repeat 5 RVD NA (synthetic (Xanthomonas TALE)); settings: ELISA
[27] = test system: TALE test backbone, repeat 5 RVD TP (synthetic (Xanthomonas TALE)); settings: ELISA
[28] = test system: TALE test backbone, repeat 5 RVD AE (synthetic (Xanthomonas TALE)); settings: ELISA
[29] = test system: TALE test backbone, repeat 5 RVD YG (synthetic (Xanthomonas TALE)); settings: ELISA
[30] = test system: TALE test backbone, repeat 5 RVD QG (synthetic (Xanthomonas TALE)); settings: ELISA
[31] = test system: TALE test backbone, repeat 5 RVD KG (synthetic (Xanthomonas TALE)); settings: ELISA
[32] = test system: TALE test backbone, repeat 5 RVD TA (synthetic (Xanthomonas TALE)); settings: ELISA
[33] = test system: TALE test backbone, repeat 5 RVD SG (synthetic (Xanthomonas TALE)); settings: ELISA
[34] = test system: TALE test backbone, repeat 5 RVD KI (Xanthomonas sp. (engineered)); settings: RVD KI
[35] = test system: TALE test backbone, repeat 5 RVD LA (synthetic (Xanthomonas TALE)); settings: ELISA
[36] = test system: TALE test backbone, repeat 5 RVD RA (synthetic (Xanthomonas TALE)); settings: ELISA
[37] = test system: TALE test backbone, repeat 5 RVD IG (synthetic (Xanthomonas TALE)); settings: ELISA
[38] = test system: TALE test backbone, repeat 5 RVD NG (Xanthomonas sp. (engineered)); settings: RVD NG
[39] = test system: TALE test backbone, repeat 5 RVD AA (synthetic (Xanthomonas TALE)); settings: ELISA
[40] = test system: TALE test backbone, repeat 5 RVD DK (synthetic (Xanthomonas TALE)); settings: ELISA
[41] = test system: TALE test backbone, repeat 5 RVD ND (synthetic (Xanthomonas TALE)); settings: ELISA
[42] = test system: TALE test backbone, repeat 5 RVD HA (synthetic (Xanthomonas TALE)); settings: ELISA
[43] = test system: TALE test backbone, repeat 5 RVD AT (synthetic (Xanthomonas TALE)); settings: ELISA
[44] = test system: TALE test backbone, repeat 5 RVD NI (Xanthomonas sp. (engineered)); settings: RVD NI
[45] = test system: TALE test backbone, repeat 5 RVD RI (synthetic (Xanthomonas TALE)); settings: ELISA
[46] = test system: TALE test backbone, repeat 5 RVD NS (synthetic (Xanthomonas TALE)); settings: ELISA
[47] = test system: TALE test backbone, repeat 5 RVD HD, standard framework (SEQ 333) (Xanthomonas sp. (engineered)); settings: RVD HD
[48] = test system: TALE test backbone, repeat 5 RVD HI (Xanthomonas sp. (engineered)); settings: RVD HI
[49] = test system: TALE test backbone, repeat 5 RVD SN (Xanthomonas sp. (engineered)); settings: RVD SN
[50] = test system: TALE test backbone, repeat 5 RVD AK (Xanthomonas sp. (engineered)); settings: RVD AK; other bases 0.00-0.01
[51] = test system: TALE test backbone, repeat 5 RVD KI (synthetic (Xanthomonas TALE)); settings: ELISA
[52] = test system: TALE test backbone, repeat 5 RVD KN (Xanthomonas sp. (engineered)); settings: RVD KN
[53] = test system: TALE test backbone, repeat 5 RVD HI (synthetic (Xanthomonas TALE)); settings: ELISA
[54] = test system: TALE test backbone, repeat 5 RVD NK (Xanthomonas sp. (engineered)); settings: RVD NK; other bases 0.00
[55] = test system: TALE test backbone, repeat 5 RVD DH (Xanthomonas sp. (engineered)); settings: RVD DH
[56] = test system: TALE test backbone, repeat 5 RVD IA (Xanthomonas sp. (engineered)); settings: RVD IA
[57] = test system: TALE test backbone, repeat 5 RVD VG (Xanthomonas sp. (engineered)); settings: RVD VG
[58] = test system: TALE test backbone, repeat 5 RVD TP (Xanthomonas sp. (engineered)); settings: RVD TP

Sequence: GGAGCCATCTGGCCGGGT (double strand) [NT-L target (NTF3 promoter)]
- activity (fold activation) [1]: 1
- activity (fold activation) [2]: 1.96

Sequence: GGGCTCTCCCATGCAT (double strand) [101139 site]
- activity [3]: 6.7 % NHEJ

Sequence: TATAAATACCTTCT (double strand) [TALE13 target]
- activity [4]: 98.5 % cleavage
- activity [5]: 99.3 % cleavage
- activity [6]: 1.1 % cleavage
- activity [7]: 97.8 % cleavage

Sequence: TCCTAGAAGGGCAGGC (double strand) [101141 site]
- activity [8]: 6.7 % NHEJ

Sequence: TTGACAATCCT (double strand) [CAA target]
- binding signal (normalized ELISA) [9]: 0.06
- binding signal (normalized ELISA) [10]: 0.5
- binding signal (normalized ELISA) [11]: 0.01
- binding signal (normalized ELISA) [12]: 1
- binding signal (normalized ELISA) [13]: 0.02
- binding signal (normalized ELISA) [14]: 0
- binding signal (normalized ELISA) [15]: 0.49
- binding signal (normalized ELISA) [16]: 0.32
- binding signal (normalized ELISA) [17]: 0.95
- binding signal (normalized ELISA) [18]: 0.05
- binding signal (normalized ELISA) [19]: 0.15
- binding signal (normalized ELISA) [20]: 0.38
- binding signal (normalized ELISA) [21]: 0.47
- binding signal (normalized ELISA) [22]: 0.43
- binding signal (normalized ELISA) [23]: 0.51
- binding signal (normalized ELISA) [24]: 0.04
- binding signal (normalized ELISA) [25]: 0.2
- binding signal (normalized ELISA) [26]: 0.59
- binding signal (normalized ELISA) [27]: 0.16
- binding signal (normalized ELISA) [28]: 0
- binding signal (normalized ELISA) [29]: 0.12
- binding signal (normalized ELISA) [30]: 0.21
- binding signal (normalized ELISA) [31]: 0.47
- binding signal (normalized ELISA) [32]: 0.15
- binding signal (normalized ELISA) [33]: 0.36
- binding signal (normalized ELISA) [34]: 0.75
- binding signal (normalized ELISA) [35]: 0.02
- binding signal (normalized ELISA) [36]: 0.73
- binding signal (normalized ELISA) [37]: 0.04
- binding signal (normalized ELISA) [38]: 0.48
- binding signal (normalized ELISA) [39]: 0.34
- binding signal (normalized ELISA) [40]: 0
- binding signal (normalized ELISA) [41]: 0.06
- binding signal (normalized ELISA) [42]: 0.46
- binding signal (normalized ELISA) [43]: 1.29
- binding signal (normalized ELISA) [44]: 0.6
- binding signal (normalized ELISA) [45]: 0.65
- binding signal (normalized ELISA) [46]: 0.51
- binding signal (normalized ELISA) [47]: 0.15
- binding signal (normalized ELISA) [48]: 0.67

Sequence: TTGACGATCCT (double strand) [CGA target]
- binding signal (normalized ELISA) [9]: 0
- binding signal (normalized ELISA) [10]: 0.86
- binding signal (normalized ELISA) [12]: 0.83
- binding signal (normalized ELISA) [13]: 0
- binding signal (normalized ELISA) [15]: 0.25
- binding signal (normalized ELISA) [16]: 0.12
- binding signal (normalized ELISA) [17]: 0.74
- binding signal (normalized ELISA) [18]: 0.01
- binding signal (normalized ELISA) [19]: 0.02
- binding signal (normalized ELISA) [20]: 0.11
- binding signal (normalized ELISA) [21]: 0.81
- binding signal (normalized ELISA) [23]: 0.87
- binding signal (normalized ELISA) [49]: 0.92
- binding signal (normalized ELISA) [24]: 0
- binding signal (normalized ELISA) [25]: 0.03
- binding signal (normalized ELISA) [26]: 0.41
- binding signal (normalized ELISA) [27]: 0.01
- binding signal (normalized ELISA) [28]: 0
- binding signal (normalized ELISA) [29]: 0.01
- binding signal (normalized ELISA) [30]: 0.05
- binding signal (normalized ELISA) [31]: 0.2
- binding signal (normalized ELISA) [32]: 0.01
- binding signal (normalized ELISA) [33]: 0.2
- binding signal (normalized ELISA) [35]: 0
- binding signal (normalized ELISA) [50]: 0.21
- binding signal (normalized ELISA) [51]: 0.02
- binding signal (normalized ELISA) [36]: 0.53
- binding signal (normalized ELISA) [37]: 0.01
- binding signal (normalized ELISA) [52]: 1
- binding signal (normalized ELISA) [39]: 0.06
- binding signal (normalized ELISA) [40]: 0.15
- binding signal (normalized ELISA) [41]: 0
- binding signal (normalized ELISA) [42]: 0.24
- binding signal (normalized ELISA) [43]: 0.76
- binding signal (normalized ELISA) [44]: 0.02
- binding signal (normalized ELISA) [45]: 0.02
- binding signal (normalized ELISA) [46]: 0.71
- binding signal (normalized ELISA) [47]: 0
- binding signal (normalized ELISA) [53]: 0.04
- binding signal (normalized ELISA) [54]: 0.15
- binding signal (normalized ELISA) [55]: 0.36

Sequence: TTGACTATCCT (double strand) [CTA target]
- binding signal (normalized ELISA) [9]: 0.05
- binding signal (normalized ELISA) [10]: 0.01
- binding signal (normalized ELISA) [11]: 0.03
- binding signal (normalized ELISA) [12]: 0.67
- binding signal (normalized ELISA) [13]: 0.01
- binding signal (normalized ELISA) [15]: 1.52
- binding signal (normalized ELISA) [16]: 0.87
- binding signal (normalized ELISA) [17]: 0.81
- binding signal (normalized ELISA) [56]: 1.2
- binding signal (normalized ELISA) [20]: 1.49
- binding signal (normalized ELISA) [22]: 0.02
- binding signal (normalized ELISA) [23]: 0.01
- binding signal (normalized ELISA) [24]: 0.84
- binding signal (normalized ELISA) [25]: 1.24
- binding signal (normalized ELISA) [26]: 1.72
- binding signal (normalized ELISA) [28]: 0
- binding signal (normalized ELISA) [29]: 0.79
- binding signal (normalized ELISA) [57]: 0.56
- binding signal (normalized ELISA) [58]: 1.2
- binding signal (normalized ELISA) [30]: 1.09
- binding signal (normalized ELISA) [31]: 1.29
- binding signal (normalized ELISA) [32]: 0.76
- binding signal (normalized ELISA) [33]: 1.23
- binding signal (normalized ELISA) [35]: 0.51
- binding signal (normalized ELISA) [51]: 0.04
- binding signal (normalized ELISA) [36]: 1.64
- binding signal (normalized ELISA) [37]: 0.68
- binding signal (normalized ELISA) [38]: 1.3
- binding signal (normalized ELISA) [39]: 0.61
- binding signal (normalized ELISA) [40]: 0
- binding signal (normalized ELISA) [41]: 0.02
- binding signal (normalized ELISA) [42]: 1.54
- binding signal (normalized ELISA) [43]: 0.56
- binding signal (normalized ELISA) [44]: 0.02
- binding signal (normalized ELISA) [45]: 0.02
- binding signal (normalized ELISA) [46]: 0.54
- binding signal (normalized ELISA) [47]: 0.09
- binding signal (normalized ELISA) [53]: 0.04
